Earlier results in publication PMC3359799.
Like-named read-outs stand apart in the source and are kept apart here.

Key:
[1] = target: Exendin-4 (Heloderma suspectum) (UniProt P26349)
GLP-1 (Homo sapiens) [2] = target: GLP-1 (Homo sapiens) (UniProt P01275)
[3] = target: Exendin-4 (Heloderma suspectum) (UniProt P26349); remark: listed apart in the source
GLP-1 (Homo sapiens) [4] = target: GLP-1 (Homo sapiens) (UniProt P01275); remark: listed apart in the source
GLP-1 (Homo sapiens) [5] = target: GLP-1 (Homo sapiens) (UniProt P01275); remark: listed apart in the source
[6] = target: Exendin-4 (Heloderma suspectum) (UniProt P26349); assay: surface plasmon resonance

UniProt P01275, sequence (P01275 98-127): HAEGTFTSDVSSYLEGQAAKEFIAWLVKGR
UniProt P26349, sequence (P26349 48-86): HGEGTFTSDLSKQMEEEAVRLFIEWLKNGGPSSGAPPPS

GLP-1 receptor (from UniProt P43220)
Kd [1]: 0.1 nM | Kd (GLP-1 (Homo sapiens) [2]): 0.3 nM

GLP-1 receptor ECD (from UniProt P43220)
Kd [3]: 13 nM | Kd (GLP-1 (Homo sapiens) [4]): 800 nM | Kd (GLP-1 (Homo sapiens) [5]): 1000 nM | Kd [6]: 900 nM
